Source: the RNAGym collection of RNA variant scans (doi:10.1073/pnas.2313332121)
Variants at the floor of the assay were thinned out.

B1: TPR 5TU (parent)
chain: GGAUCUUCUCGAUCUAACAAAAAAGACAAAUCUGCCACAAAGCUUGAGAGCAUCUUCGGAUGCAGAGGCGGCAGCCUUCGGUGGCGCGAUAGCGCCAACGUUCUCAACUAUGACACGCAAAACGCGUGCUCCGUUGAAUGGAGUUUAUCAUG

Variants of: B1
Test: polymerase ribozyme fitness, log enrichment relative to wild type (log ratio); higher = more active; in vitro selection for triplet polymerase activity
In short: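 Streptavidin-bead capture of gel-excised extended constructs, followed by RT-PCR, closed a single triplicate in vitro selection round. That round began by annealing PCR-built, transcribed mutant libraries of each subunit of a heterodimeric triplet polymerase ribozyme with a biotinylated primer, the partner subunit and triplets, then incubating them frozen at −7 °C. After Illumina sequencing of inputs and outputs, genotypes needed ≥10 input reads and ≥1 read per output. Fitness is the base-2 logarithm of genotype enrichment over wild-type enrichment, using inverse-variance-weighted replicate averages.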

Q: With U56G G92U A97U C105U as the variant, how does the “polymerase ribozyme fitness (log ratio)” value read?
A: -1.61

Q: For C57U C85A G100U A115G U135A G141C, which “polymerase ribozyme fitness (log ratio)” value is on record?
A: ≤ -4.2

Q: Which “polymerase ribozyme fitness (log ratio)” value does the source give for U56C G67U A91C A97U C123A here?
A: ≤ -4.2

Q: Which “polymerase ribozyme fitness (log ratio)” value does the source give for U56C U78G G80A G84C here?
A: ≤ -4.2

Q: Which “polymerase ribozyme fitness (log ratio)” value does the source give for U56C G58A G84A U145G here?
A: 0.113

Q: Which “polymerase ribozyme fitness (log ratio)” value does the source give for G58A A73U U101G U102A U109A here?
A: ≤ -4.2

Q: Which “polymerase ribozyme fitness (log ratio)” value does the source give for C57A C114U here?
A: -1.45

Q: For C57A G117U, which “polymerase ribozyme fitness (log ratio)” value is on record?
A: 0.691

Q: With U56A G92C U139A G140U as the variant, how does the “polymerase ribozyme fitness (log ratio)” value read?
A: -3.76

Q: Which “polymerase ribozyme fitness (log ratio)” value does the source give for U56C C76A A122G here?
A: -0.262

Q: With C57U G59A G86A U134A U148A as the variant, how does the “polymerase ribozyme fitness (log ratio)” value read?
A: ≤ -4.2

Q: With U56G U78C C85A C123U as the variant, how does the “polymerase ribozyme fitness (log ratio)” value read?
A: -1.43

Q: For C57G U77C G84A U134A, which “polymerase ribozyme fitness (log ratio)” value is on record?
A: ≤ -4.2

Q: Which “polymerase ribozyme fitness (log ratio)” value does the source give for G58A A64G A91C A147U here?
A: ≤ -4.2

Q: For U56A U82C C87G A150U, which “polymerase ribozyme fitness (log ratio)” value is on record?
A: -3.31

Q: With U56A U82C C93U as the variant, how does the “polymerase ribozyme fitness (log ratio)” value read?
A: -1.41

Q: With C57A G59U U77A C99G as the variant, how does the “polymerase ribozyme fitness (log ratio)” value read?
A: ≤ -4.2

Q: Which “polymerase ribozyme fitness (log ratio)” value does the source give for C57G C79U here?
A: -2.13

Q: With C57U C63U G65U G88A A138U as the variant, how does the “polymerase ribozyme fitness (log ratio)” value read?
A: ≤ -4.2

Q: Which “polymerase ribozyme fitness (log ratio)” value does the source give for C57G U146A here?
A: -0.273

Q: For C57A U102C C103U, which “polymerase ribozyme fitness (log ratio)” value is on record?
A: -2.76

Q: For C57G G58A A60G A137U, which “polymerase ribozyme fitness (log ratio)” value is on record?
A: -4.15

Q: With C57U C85A A98C as the variant, how does the “polymerase ribozyme fitness (log ratio)” value read?
A: -1.23

Q: With C57G G86A C95U C99U G141U as the variant, how does the “polymerase ribozyme fitness (log ratio)” value read?
A: -3.92

Q: Which “polymerase ribozyme fitness (log ratio)” value does the source give for C57A U90A A91U A138U here?
A: ≤ -4.2

Q: Which “polymerase ribozyme fitness (log ratio)” value does the source give for U56G C85G here?
A: -2.54

Q: Which “polymerase ribozyme fitness (log ratio)” value does the source give for U56A G94U C95A G143U here?
A: -3.39

Q: For C57U C85A G133C G136A, which “polymerase ribozyme fitness (log ratio)” value is on record?
A: -1.86

Q: Which “polymerase ribozyme fitness (log ratio)” value does the source give for C57U A64C A89U G128U U148A here?
A: ≤ -4.2

Q: With C57A G58A C79U G88U as the variant, how does the “polymerase ribozyme fitness (log ratio)” value read?
A: ≤ -4.2

Q: Which “polymerase ribozyme fitness (log ratio)” value does the source give for U56G C76U A91G A122U C149G here?
A: ≤ -4.2

Q: With C57U C93A as the variant, how does the “polymerase ribozyme fitness (log ratio)” value read?
A: -1.61

Q: For C57U C93G, which “polymerase ribozyme fitness (log ratio)” value is on record?
A: -3.36

Q: Which “polymerase ribozyme fitness (log ratio)” value does the source give for C57U C87U A113C A119G here?
A: -3.09

Q: With C57G A98U as the variant, how does the “polymerase ribozyme fitness (log ratio)” value read?
A: -0.592

Q: Which “polymerase ribozyme fitness (log ratio)” value does the source give for C57G C72G C79U C103G here?
A: ≤ -4.2

Q: With C57A G94A as the variant, how does the “polymerase ribozyme fitness (log ratio)” value read?
A: -0.487

Q: With U56A G141A as the variant, how does the “polymerase ribozyme fitness (log ratio)” value read?
A: 0.775

Q: For C57U G83A G88A A89G U134G, which “polymerase ribozyme fitness (log ratio)” value is on record?
A: ≤ -4.2

Q: With C57U G88U G100A A107C as the variant, how does the “polymerase ribozyme fitness (log ratio)” value read?
A: ≤ -4.2

Q: With C57U U82A C93A G112U C116U as the variant, how does the “polymerase ribozyme fitness (log ratio)” value read?
A: ≤ -4.2

Q: With C57A C76U as the variant, how does the “polymerase ribozyme fitness (log ratio)” value read?
A: 0.264

Q: For U56A U90C U144G, which “polymerase ribozyme fitness (log ratio)” value is on record?
A: -3.91

Q: For C57G C114A, which “polymerase ribozyme fitness (log ratio)” value is on record?
A: -3.32

Q: For C57G C114U, which “polymerase ribozyme fitness (log ratio)” value is on record?
A: -1.83

Q: Which “polymerase ribozyme fitness (log ratio)” value does the source give for G58A A91C here?
A: ≤ -4.2

Q: For U56G C108A, which “polymerase ribozyme fitness (log ratio)” value is on record?
A: ≤ -4.2

Q: For U56G C76A U77C C93G C105A U109G, which “polymerase ribozyme fitness (log ratio)” value is on record?
A: ≤ -4.2

Q: With G58A as the variant, how does the “polymerase ribozyme fitness (log ratio)” value read?
A: 0.338

Q: Which “polymerase ribozyme fitness (log ratio)” value does the source give for C57A A60G U101A U109A A113U here?
A: -3.65

Q: Which “polymerase ribozyme fitness (log ratio)” value does the source give for C57U U61A A89U A106G A122G A150G here?
A: -3.73

Q: With U56G C93U A107G A120U as the variant, how does the “polymerase ribozyme fitness (log ratio)” value read?
A: -4.12

Q: Which “polymerase ribozyme fitness (log ratio)” value does the source give for C57A A60C here?
A: -1.35

Q: Which “polymerase ribozyme fitness (log ratio)” value does the source give for C57U G92C A97C U145A here?
A: 0.369

Q: With C57G C96G U145A as the variant, how does the “polymerase ribozyme fitness (log ratio)” value read?
A: -0.71

Q: For C57G G58U A137G G143A, which “polymerase ribozyme fitness (log ratio)” value is on record?
A: -2.87

Q: With C57U A64U C114U as the variant, how does the “polymerase ribozyme fitness (log ratio)” value read?
A: ≤ -4.2

Q: With C57A A113U as the variant, how does the “polymerase ribozyme fitness (log ratio)” value read?
A: -1.86

Q: With C57U A91G as the variant, how does the “polymerase ribozyme fitness (log ratio)” value read?
A: -2.92

Q: For C57U A91C, which “polymerase ribozyme fitness (log ratio)” value is on record?
A: ≤ -4.2

Q: Which “polymerase ribozyme fitness (log ratio)” value does the source give for C57A A64G A66G C118U A147C G152U here?
A: ≤ -4.2

Q: For G58A A73G C116U, which “polymerase ribozyme fitness (log ratio)” value is on record?
A: 0.431

Q: For U56A U102G, which “polymerase ribozyme fitness (log ratio)” value is on record?
A: -2.4

Q: With C57G G58A G86U as the variant, how does the “polymerase ribozyme fitness (log ratio)” value read?
A: -1.7

Q: For U56A U148G, which “polymerase ribozyme fitness (log ratio)” value is on record?
A: -3.6

Q: Which “polymerase ribozyme fitness (log ratio)” value does the source give for U56C G59A G92U U135A here?
A: -2.19

Q: For U56G G68U G92A C93A A106U A115U A150C, which “polymerase ribozyme fitness (log ratio)” value is on record?
A: ≤ -4.2

Q: Which “polymerase ribozyme fitness (log ratio)” value does the source give for U56G G58C C99G here?
A: -2.63

Q: With U56C C96U as the variant, how does the “polymerase ribozyme fitness (log ratio)” value read?
A: -0.496

Q: For U56A G92A U148G, which “polymerase ribozyme fitness (log ratio)” value is on record?
A: ≤ -4.2

Q: Which “polymerase ribozyme fitness (log ratio)” value does the source give for U56A U127A A138C A142G here?
A: -3.48

Q: For C57A A89G C95U A119U A120U C125U, which “polymerase ribozyme fitness (log ratio)” value is on record?
A: -1.54

Q: For C57U G58C A142C, which “polymerase ribozyme fitness (log ratio)” value is on record?
A: 0.768

Q: For C57G G92U, which “polymerase ribozyme fitness (log ratio)” value is on record?
A: -0.526

Q: For C57A C75U G92C G140U, which “polymerase ribozyme fitness (log ratio)” value is on record?
A: ≤ -4.2

Q: For C57A C105U, which “polymerase ribozyme fitness (log ratio)” value is on record?
A: 1.29

Q: For G58A A73C, which “polymerase ribozyme fitness (log ratio)” value is on record?
A: -1.62

Q: For C57A G65A G84U A120G, which “polymerase ribozyme fitness (log ratio)” value is on record?
A: -3.08

Q: For C57A G84U A89U G92U C118U U151A, which “polymerase ribozyme fitness (log ratio)” value is on record?
A: ≤ -4.2

Q: With C57A A150U as the variant, how does the “polymerase ribozyme fitness (log ratio)” value read?
A: 1.72

Q: For C57U C93U A115C A142C A147U, which “polymerase ribozyme fitness (log ratio)” value is on record?
A: ≤ -4.2

Q: With C57G G94C A98G C105U as the variant, how does the “polymerase ribozyme fitness (log ratio)” value read?
A: -0.386

Q: With C57U G70A G83C U139G as the variant, how does the “polymerase ribozyme fitness (log ratio)” value read?
A: ≤ -4.2

Q: Which “polymerase ribozyme fitness (log ratio)” value does the source give for C57U A138U U145G here?
A: -3.98
